Results on 6 molecules are retold here after patent publication US20160123962A1 (ALBERT EINSTEIN COLLEGE OF MEDICINE, published 2016).

The labels stand for the following.
T1: human brevican (human, UniProt Q96GW7 23-911, limits assumed)
T1 construct: Proteoglycan immobilized on the SPR chip
T1 sequence (looked up): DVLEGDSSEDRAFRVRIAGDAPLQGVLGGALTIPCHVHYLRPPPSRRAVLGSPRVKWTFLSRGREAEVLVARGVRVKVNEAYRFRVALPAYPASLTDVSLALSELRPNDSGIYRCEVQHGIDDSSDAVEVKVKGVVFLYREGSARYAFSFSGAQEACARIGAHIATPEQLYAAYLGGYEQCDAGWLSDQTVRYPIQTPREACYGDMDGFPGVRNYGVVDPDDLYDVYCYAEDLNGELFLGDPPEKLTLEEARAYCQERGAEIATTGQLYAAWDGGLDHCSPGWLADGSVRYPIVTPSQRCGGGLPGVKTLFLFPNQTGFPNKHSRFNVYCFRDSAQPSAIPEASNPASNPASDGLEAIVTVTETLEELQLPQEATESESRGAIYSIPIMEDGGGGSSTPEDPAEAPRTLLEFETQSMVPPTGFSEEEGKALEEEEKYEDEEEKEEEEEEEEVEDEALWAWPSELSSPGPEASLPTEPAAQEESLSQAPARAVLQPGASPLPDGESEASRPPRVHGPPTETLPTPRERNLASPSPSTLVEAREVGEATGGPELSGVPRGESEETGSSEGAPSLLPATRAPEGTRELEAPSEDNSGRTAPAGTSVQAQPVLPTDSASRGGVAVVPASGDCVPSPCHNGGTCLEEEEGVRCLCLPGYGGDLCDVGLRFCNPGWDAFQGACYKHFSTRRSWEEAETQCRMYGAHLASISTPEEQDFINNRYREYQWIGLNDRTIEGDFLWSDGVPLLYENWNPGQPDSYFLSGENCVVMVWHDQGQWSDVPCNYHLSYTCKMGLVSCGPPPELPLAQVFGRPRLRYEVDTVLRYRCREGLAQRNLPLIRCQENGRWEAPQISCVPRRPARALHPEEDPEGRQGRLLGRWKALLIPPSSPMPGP

B1: FLAG-tagged human CSF-1 (ligand, UniProt P09603 33-255, looked up)
chain: EEVSEYCSHMIGSGHLQSLQRLIDSQMETSCQITFEFVDQEQLKDPVCYLKKAFLLVQDIMEDTMRFRDNTPNAIAIVQLQELSLRLKSCFTKDYEEHDKACVRTFYETPLQLLEKVKNVFNETKNLLDKDWNIFSKNCNNSFAECSSQDVVTKPDCNCLYPKAIPSSDPASVSPHQPLAPSMAPVAGLTWEDSEGTEGSSLLPGEQPLHTVDPGSAKQRPPR
notes: also called CSF-1-FLAG; not shown: FLAG tag
B2: human tenascin-R (hTN-R) (other, UniProt Q92752 32-1358, looked up)
chain: QLEVTTERVQRQSVEEEGGIANYNTSSKEQPVVFNHVYNINVPLDNLCSSGLEASAEQEVSAEDETLAEYMGQTSDHESQVTFTHRINFPKKACPCASSAQVLQELLSRIEMLEREVSVLRDQCNANCCQESAATGQLDYIPHCSGHGNFSFESCGCICNEGWFGKNCSEPYCPLGCSSRGVCVDGQCICDSEYSGDDCSELRCPTDCSSRGLCVDGECVCEEPYTGEDCRELRCPGDCSGKGRCANGTCLCEEGYVGEDCGQRQCLNACSGRGQCEEGLCVCEEGYQGPDCSAVAPPEDLRVAGISDRSIELEWDGPMAVTEYVISYQPTALGGLQLQQRVPGDWSGVTITELEPGLTYNISVYAVISNILSLPITAKVATHLSTPQGLQFKTITETTVEVQWEPFSFSFDGWEISFIPKNNEGGVIAQVPSDVTSFNQTGLKPGEEYIVNVVALKEQARSPPTSASVSTVIDGPTQILVRDVSDTVAFVEWIPPRAKVDFILLKYGLVGGEGGRTTFRLQPPLSQYSVQALRPGSRYEVSVSAVRGTNESDSATTQFTTEIDAPKNLRVGSRTATSLDLEWDNSEAEVQEYKVVYSTLAGEQYHEVLVPRGIGPTTRATLTDLVPGTEYGVGISAVMNSQQSVPATMNARTELDSPRDLMVTASSETSISLIWTKASGPIDHYRITFTPSSGIASEVTVPKDRTSYTLTDLEPGAEYIISVTAERGRQQSLESTVDAFTGFRPISHLHFSHVTSSSVNITWSDPSPPADRLILNYSPRDEEEEMMEVSLDATKRHAVLMGLQPATEYIVNLVAVHGTVTSEPIVGSITTGIDPPKDITISNVTKDSVMVSWSPPVASFDYYRVSYRPTQVGRLDSSVVPNTVTEFTITRLNPATEYEISLNSVRGREESERICTLVHTAMDNPVDLIATNITPTEALLQWKAPVGEVENYVIVLTHFAVAGETILVDGVSEEFRLVDLLPSTHYTATMYATNGPLTSGTISTNFSTLLDPPANLTASEVTRQSALISWQPPRAEIENYVLTYKSTDGSRKELIVDAEDTWIRLEGLLENTDYTVLLQAAQDTTWSSITSTAFTTGGRVFPHPQDCAQHLMNGDTLSGVYPIFLNGELSQKLQVYCDMTTDGGGWIVFQRRQNGQTDFFRKWADYRVGFGNVEDEFWLGLDNIHRITSQGRYELRVDMRDGQEAAFASYDRFSVEDSRNLYKLRIGSYNGTAGDSLSYHQGRPFSTEDRDNDVAVTNCAMSYKGAWWYKNCHRTNLNGKYGESRHSQGINWYHWKGHEFSIPFVEMKMRPYNHRLMAGRKRQSLQF
notes: Extracellular matrix protein used as analyte in SPR
B3: human IL-34 (interleukin-34) (ligand, UniProt Q6ZMJ4 21-242, looked up)
chain: NEPLEMWPLTQNEECTVTGFLRDKLQYRSRLQYMKHYFPINYKISVPYEGVFRIANVTRLQRAQVSERELRYLWVLVSLSATESVQDVLLEGHPSWKYLQEVETLLLNVQQGLTDVEVSPKVESVLSLLNAPGPNLKLVRPKALLDNCFRVMELLYCSCCKQSSVLNWQDCEVPSPQSCSPEPSLQYAATQLYPPPPWSPSSPPHSTGSVRPVRAQGEGLLP
modifications: biotinylated with EZ-Link Sulfo-NHS-LC-LC-Biotin in the pull-down and flow cytometry assays; unlabelled in SPR
notes: Purified protein; also called hIL-34; biotinylated hIL-34
B4: FLAG-tagged human IL-34 (ligand, UniProt Q6ZMJ4 21-242, looked up)
chain: B3 chain
notes: also called IL-34-FLAG; not shown: FLAG tag
B5: human recombinant CSF-1 (colony stimulating factor-1) (ligand, UniProt P09603 36-253, looked up)
chain: SEYCSHMIGSGHLQSLQRLIDSQMETSCQITFEFVDQEQLKDPVCYLKKAFLLVQDIMEDTMRFRDNTPNAIAIVQLQELSLRLKSCFTKDYEEHDKACVRTFYETPLQLLEKVKNVFNETKNLLDKDWNIFSKNCNNSFAECSSQDVVTKPDCNCLYPKAIPSSDPASVSPHQPLAPSMAPVAGLTWEDSEGTEGSSLLPGEQPLHTVDPGSAKQRP
notes: also called hCSF-1

Assay [1] addresses human PTP-ζ (protein tyrosine phosphatase receptor type zeta) of U251 human glioblastoma cells (human) (UniProt P23471). Briefly: cell-based or functional assay.
Assay [2] deals with T2, human PTP-ζ (protein tyrosine phosphatase receptor type zeta) of U251 human glioblastoma cells (human, UniProt P23471 25-2315, chondroitin sulfate glycosaminoglycan chains (proteoglycan)).
T2 construct: Endogenous protein on intact U251 cells (flow cytometry) or in OG-solubilized U251 membrane lysates (pull-down); long (~400 kDa), non-glycosaminoglycanylated (300 kDa) and short (220 kDa) isoforms are present; U251 cells lack CSF-1R; also called PTP-β/ζ; cell-surface PTP-ζ
Briefly: flow cytometry on U251 cells, detection with biotin-labeled anti-FLAG M2 antibody, at concentrations equivalent to IL-34-FLAG. On the technique in general: Flow cytometry measures light scatter and fluorescence of single cells or particles in a stream.

In assay [3] the target is T3, human PTP-ζ extracellular domain fused to immunoglobulin Fc domain (hPTP-ζ-ECD-Fc) (human, UniProt P23471 25-1636).
T3 construct: also called full-length hPTP-ζ ECD-Fc; not shown: immunoglobulin Fc domain
Briefly: SPR (Biacore 3000), hPTP-ζ ECD-Fc immobilized on CM5 chip, hTN-R as analyte, steady state model; TN-R with hPTP-ζ ECD-Fc. Here is the method: (§1) SPR binding analyses were performed at 25° C. on Biacore instruments. […] The protein A surface was regenerated with 10 mM Glycine-HCl, pH 1.5. […] All sensorgrams were double-referenced.
In general terms: SPR reads the build-up and loss of mass on a sensor chip optically.

Another assay deals with T1, human brevican. Briefly: SPR, brevican immobilized on the chip, hIL-34 as analyte; IL-34 with human brevican. Here is the method: as §1
Assay [4] concerns the target T4, human CSF-1R extracellular domain fused to immunoglobulin Fc domain (hCSF-1R-ECD-Fc) (human, UniProt P07333 20-517).
T4 construct: extracellular domain; not shown: immunoglobulin Fc domain
Briefly: SPR (Biacore T100), hCSF-1R-ECD-Fc captured on Protein A, hIL-34 as analyte; hIL-34 on hCSF-1R-ECD-Fc. Here is the method: as §1

The target in assay [5] is T3, human PTP-ζ extracellular domain fused …. Briefly: SPR (Biacore T100), hPTP-ζ-ECD-Fc captured on Protein A, hIL-34 as analyte, steady state model; hIL-34 on full-length hPTP-ζ ECD-Fc. Here is the method:
as §1

The assay “human tenascin-R (hTN-R)” addresses B2. Briefly: SPR (Biacore 3000), IL-34 immobilized on CM5 chip, hTN-R as analyte, steady state model; IL-34 with hTN-R. On the procedure: as §1
Assay [6] has as its target T2, human PTP-ζ (protein tyrosine …). Briefly: flow cytometry on U251 cells, detection with biotin-labeled anti-FLAG M2 antibody.
The target of assay [7] is T4, human CSF-1R extracellular domain fused …. Briefly: SPR (Biacore T100), hCSF-1R-ECD-Fc captured on Protein A, hCSF-1 as analyte; hCSF-1 on hCSF-1R-ECD-Fc. On the procedure: as §1

T3 sequence (P23471 25-1636): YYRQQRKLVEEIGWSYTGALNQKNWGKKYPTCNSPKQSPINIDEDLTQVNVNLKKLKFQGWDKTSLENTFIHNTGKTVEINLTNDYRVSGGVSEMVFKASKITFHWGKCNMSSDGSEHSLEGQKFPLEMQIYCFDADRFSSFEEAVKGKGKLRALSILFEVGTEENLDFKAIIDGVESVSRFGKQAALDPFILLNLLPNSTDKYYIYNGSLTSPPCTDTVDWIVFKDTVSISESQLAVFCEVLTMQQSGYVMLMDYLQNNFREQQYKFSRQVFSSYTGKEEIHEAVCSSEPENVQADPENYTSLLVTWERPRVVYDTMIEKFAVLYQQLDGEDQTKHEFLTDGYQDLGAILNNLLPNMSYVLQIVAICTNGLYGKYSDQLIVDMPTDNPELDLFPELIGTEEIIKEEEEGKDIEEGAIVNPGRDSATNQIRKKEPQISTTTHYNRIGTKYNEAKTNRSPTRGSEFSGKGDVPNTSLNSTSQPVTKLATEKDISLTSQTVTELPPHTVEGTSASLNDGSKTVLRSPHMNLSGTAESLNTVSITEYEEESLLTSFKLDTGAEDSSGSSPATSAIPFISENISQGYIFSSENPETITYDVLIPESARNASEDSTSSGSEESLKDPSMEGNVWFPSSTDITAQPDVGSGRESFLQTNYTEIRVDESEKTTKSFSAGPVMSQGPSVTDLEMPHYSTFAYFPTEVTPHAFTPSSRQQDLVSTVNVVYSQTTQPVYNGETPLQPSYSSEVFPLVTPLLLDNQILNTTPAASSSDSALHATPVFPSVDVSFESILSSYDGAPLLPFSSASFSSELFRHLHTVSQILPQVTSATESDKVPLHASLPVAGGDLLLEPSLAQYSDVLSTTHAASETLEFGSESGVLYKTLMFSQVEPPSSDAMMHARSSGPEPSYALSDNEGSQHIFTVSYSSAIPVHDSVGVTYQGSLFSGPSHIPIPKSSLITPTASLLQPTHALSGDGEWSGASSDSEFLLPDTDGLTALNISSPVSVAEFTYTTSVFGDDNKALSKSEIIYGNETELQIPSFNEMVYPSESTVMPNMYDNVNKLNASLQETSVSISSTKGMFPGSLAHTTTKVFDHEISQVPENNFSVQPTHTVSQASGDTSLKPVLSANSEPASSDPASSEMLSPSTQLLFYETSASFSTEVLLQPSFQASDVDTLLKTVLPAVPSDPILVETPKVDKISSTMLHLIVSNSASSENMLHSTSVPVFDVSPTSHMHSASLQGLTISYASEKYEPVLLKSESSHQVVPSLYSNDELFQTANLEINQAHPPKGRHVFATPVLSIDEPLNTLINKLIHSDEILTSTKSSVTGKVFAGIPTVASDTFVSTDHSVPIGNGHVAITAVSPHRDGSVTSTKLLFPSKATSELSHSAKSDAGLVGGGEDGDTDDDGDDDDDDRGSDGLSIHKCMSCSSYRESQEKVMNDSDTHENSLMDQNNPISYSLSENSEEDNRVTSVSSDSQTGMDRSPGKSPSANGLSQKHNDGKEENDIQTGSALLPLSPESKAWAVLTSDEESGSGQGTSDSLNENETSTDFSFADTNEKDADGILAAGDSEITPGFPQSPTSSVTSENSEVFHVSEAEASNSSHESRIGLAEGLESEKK
T2 sequence (P23471 25-2315 limits assumed): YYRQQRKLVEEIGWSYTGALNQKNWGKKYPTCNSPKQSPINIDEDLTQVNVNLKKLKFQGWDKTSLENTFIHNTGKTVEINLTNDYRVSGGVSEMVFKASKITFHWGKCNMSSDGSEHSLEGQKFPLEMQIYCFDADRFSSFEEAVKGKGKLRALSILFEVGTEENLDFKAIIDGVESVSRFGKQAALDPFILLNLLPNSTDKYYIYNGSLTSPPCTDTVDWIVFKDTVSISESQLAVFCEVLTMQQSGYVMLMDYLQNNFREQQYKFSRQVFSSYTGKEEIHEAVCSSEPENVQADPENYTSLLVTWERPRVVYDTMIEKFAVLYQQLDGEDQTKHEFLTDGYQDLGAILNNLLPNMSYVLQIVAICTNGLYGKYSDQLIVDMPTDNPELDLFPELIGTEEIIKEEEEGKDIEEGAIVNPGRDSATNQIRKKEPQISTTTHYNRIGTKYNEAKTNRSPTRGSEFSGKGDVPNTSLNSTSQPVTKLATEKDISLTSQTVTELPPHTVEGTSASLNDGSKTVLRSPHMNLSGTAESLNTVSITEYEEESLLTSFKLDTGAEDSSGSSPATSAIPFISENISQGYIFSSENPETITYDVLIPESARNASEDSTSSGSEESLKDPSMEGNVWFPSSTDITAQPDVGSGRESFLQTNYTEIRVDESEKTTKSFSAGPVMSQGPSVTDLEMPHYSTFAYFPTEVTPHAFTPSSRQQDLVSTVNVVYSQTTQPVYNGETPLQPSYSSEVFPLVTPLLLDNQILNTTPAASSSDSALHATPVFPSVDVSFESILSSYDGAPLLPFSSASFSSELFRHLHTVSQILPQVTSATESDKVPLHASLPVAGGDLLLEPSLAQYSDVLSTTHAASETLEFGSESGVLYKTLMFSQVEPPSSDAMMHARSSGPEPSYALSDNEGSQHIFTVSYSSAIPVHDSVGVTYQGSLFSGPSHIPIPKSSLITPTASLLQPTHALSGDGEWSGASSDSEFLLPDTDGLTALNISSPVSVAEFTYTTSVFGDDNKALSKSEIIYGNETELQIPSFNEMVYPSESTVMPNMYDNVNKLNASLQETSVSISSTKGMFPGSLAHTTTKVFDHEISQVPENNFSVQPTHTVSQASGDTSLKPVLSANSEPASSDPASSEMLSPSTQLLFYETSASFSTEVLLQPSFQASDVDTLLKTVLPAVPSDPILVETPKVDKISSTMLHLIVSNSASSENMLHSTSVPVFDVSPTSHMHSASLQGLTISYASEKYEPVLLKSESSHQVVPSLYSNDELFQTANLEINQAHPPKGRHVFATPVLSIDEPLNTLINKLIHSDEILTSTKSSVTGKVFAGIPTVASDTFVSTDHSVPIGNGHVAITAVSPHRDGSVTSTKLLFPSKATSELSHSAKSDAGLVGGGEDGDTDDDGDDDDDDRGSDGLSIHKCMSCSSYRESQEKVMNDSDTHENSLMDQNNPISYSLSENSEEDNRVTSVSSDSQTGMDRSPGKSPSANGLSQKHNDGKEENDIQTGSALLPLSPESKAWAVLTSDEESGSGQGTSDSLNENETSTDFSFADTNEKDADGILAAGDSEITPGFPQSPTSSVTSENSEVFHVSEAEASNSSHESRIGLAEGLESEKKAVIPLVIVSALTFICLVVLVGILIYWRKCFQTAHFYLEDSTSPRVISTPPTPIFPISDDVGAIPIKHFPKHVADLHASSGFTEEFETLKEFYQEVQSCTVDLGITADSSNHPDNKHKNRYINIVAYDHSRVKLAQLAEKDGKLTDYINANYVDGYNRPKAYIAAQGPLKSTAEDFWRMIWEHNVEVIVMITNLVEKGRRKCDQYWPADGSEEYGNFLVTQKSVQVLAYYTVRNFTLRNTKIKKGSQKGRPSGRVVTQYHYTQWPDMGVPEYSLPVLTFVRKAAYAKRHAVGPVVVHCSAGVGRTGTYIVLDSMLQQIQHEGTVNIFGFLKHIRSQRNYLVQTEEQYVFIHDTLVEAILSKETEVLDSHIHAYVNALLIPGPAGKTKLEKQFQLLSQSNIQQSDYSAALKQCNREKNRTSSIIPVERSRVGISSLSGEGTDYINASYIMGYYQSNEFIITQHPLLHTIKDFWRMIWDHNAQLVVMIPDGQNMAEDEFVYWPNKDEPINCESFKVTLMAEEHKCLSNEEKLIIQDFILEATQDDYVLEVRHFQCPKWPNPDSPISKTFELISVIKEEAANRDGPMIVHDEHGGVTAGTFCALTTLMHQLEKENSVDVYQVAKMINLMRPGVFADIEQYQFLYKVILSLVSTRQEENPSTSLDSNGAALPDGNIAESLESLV
Sequence of human PTP-ζ (protein tyrosine phosphatase receptor type zeta) of U251 human glioblastoma cells (human) (P23471 25-2315 limits assumed): as above
T4 sequence (P07333 20-517): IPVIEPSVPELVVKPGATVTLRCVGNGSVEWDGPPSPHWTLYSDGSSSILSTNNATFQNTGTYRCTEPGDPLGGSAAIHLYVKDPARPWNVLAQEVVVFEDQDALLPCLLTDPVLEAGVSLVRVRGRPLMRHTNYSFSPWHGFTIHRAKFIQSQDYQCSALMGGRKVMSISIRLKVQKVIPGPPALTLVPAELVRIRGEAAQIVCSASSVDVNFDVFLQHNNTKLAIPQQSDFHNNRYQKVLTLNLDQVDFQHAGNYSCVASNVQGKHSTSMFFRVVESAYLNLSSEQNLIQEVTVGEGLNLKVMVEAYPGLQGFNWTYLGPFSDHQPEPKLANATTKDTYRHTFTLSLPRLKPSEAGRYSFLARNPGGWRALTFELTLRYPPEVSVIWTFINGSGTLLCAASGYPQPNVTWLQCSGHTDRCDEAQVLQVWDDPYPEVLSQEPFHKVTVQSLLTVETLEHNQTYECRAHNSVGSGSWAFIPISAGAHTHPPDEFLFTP

Regarding “human pleiotrophin (hPTN) (from UniProt P21246 33-168) (ligand)”, in [1], the clonogenicity of U251 cells (colony count at 8 days) was determined as 53% and the wound healing of U251 monolayer, time taken for 50% wound closure (t50) was found to be 10 h.
Regarding B1, the binding result in assay [2] is “no binding”.
The Kd is the equilibrium constant for the complex coming apart. Read a high Kd as weaker binding. B2 gave a Kd in [3] of approximately 10 nM.
On to B3, for which the Kd with human brevican was 3000 nM; in assay [4], approximately 0.001 nM; in assay [5], approximately 100 nM; with human tenascin-R (hTN-R), approximately 1000 nM.
For the molecule B4, the binding result in assay [6] is listed as “binds”.
B5 showed a Kd in assay [7] of approximately 0.01 nM.
